Source: the PETadex activity labels (doi:10.1101/2025.08.30.673199)

Substrate: PET
Assay: Proxy for plastic degradation [Released monomer concentration (HPLC/LC-MS) (TPA+MHET+BHET)]
Conditions: pH 9

Protein | Proxy for plastic degradation [µM]
unnamed (protein) MKAPLFKLAAFTLGVSLSSVALATNPGGGGAGSNPDTGTGFPGVSSFSADGSFATTSGSAGLSCTVFRPSTLGANGLKHPIIVWGNGTTASPSTYSGILEHWASHGFVVIAANTSNAGTGQDMLNCVDYLTTQNNRSTGTYANKLDLNRIGAAGHSQGGGGTIMAGQDYRIKVTAPFQPYTIGLGHNSSSQSNQNGPMFLMTGSADTIASPTLNALPVYNRANVPVFWGELSGASAFEPVGSAGDFRGPSTAWFRYHLMDDASAEDTFYGSNCDLCTDNDWDVRRKGIN | 10
unnamed (protein) MKAPLFKLAAFTLGVSLSSVALATNPGGGGAGSNPDTGTGFPGVSSFSADGSFATTSGSAGLSCTVFRPSTLGANGLKHPIIVWGNGTTASPSTYSGILEHWASHGFVVIAANTSNAGTGQDMLNCVDYLTTQNNRSTGTYANKLDLNRIGAAGHSQGGGGTIMAGQDYRIKVTAPFQPYTIGLGHNSSSQSNQNGPMFLMTGSADTIASPTLNALPVYNRANVPVFWGELSGASHIEPVGSAGDFRGPSTAWFRYHLMDDASAEDTFYGSNCDLCTDNDWDVRRKGIN | 1280
unnamed (protein) MKAPLFKLAAFTLGVSLSSVALATNPGGGGAGSNPDTGTGFPGVSSFSADGSFATTSGSAGLSCTVFRPSTLGANGLKHPIIVWGNGTTASPSTYSGILEHWASHGFVVIAANTSNAGTGQDMLNCVDYLTTQNNRSTGTYANKLDLNRIGAAGHSQGGGGTIMAGQDYRIKVTAPFQPWTIGLGHNSSSQSNQNGPMFLMTGSADTIASPTLNALPVYNRANVPVFWGELSGASHFEPVGSAGDFRGPSTAWFRYHLMDDASAEDTFYGSNCDLCTDNDWDVRRKGIN | 195
unnamed (protein) MKAPLFKLAAFTLGVSLSSVALATNPGGGGAGSNPDTGTGFPGVSSFSADGSFATTSGSAGLSCTVFRPSTLGANGLKHPIIVWGNGTTASPSTYSGILEHWASHGFVVIAANTSNAGTGQDMLNCVDYLTTQNNRSTGTYANKLDLNRIGAAGHSQGGGGTIMAGQDYRIKVTAPFQPYTIALGHNSSSQSNQNGPMFLMTGSADTIASPTLNALPVYNRANVPVFWGELSGASHFEPVGSAGDFRGPSTAWFRYHLMDDASAEDTFYGSNCDLCTDNDWDVRRKGIN | 600
